# According to patent publication US8124087B2, “Methods of controlling bone loss by inhibiting DKK1” (Board of Trustees of the University of Arkansas, priority 2002, dated 2012):
# Assays:
# [1] = system: multiple myeloma plasma cells; experiment: Gene expression profiling of plasma cells before and after 48 hour in vivo drug treatment; parameters: species or system human; settings: 48 hour in vivo treatment of patients
# Text: Following Ficoll-Hypaque gradient centrifugation, plasma cells obtained from the bone marrow were isolated from the mononuclear cell fraction by immunomagnetic bead selection using a monoclonal mouse anti-human CD138 antibody (Miltenyi-Biotec, Auburn, Calif.). More than 90 percent of the cells used for gene expression profiling were plasma cells, as shown by two-color flow cytometry using CD138^+/CD45^− and CD38^+/ CD45^− markers, the presence of cytoplasmic immunoglobulin light chains by immunocytochemistry, and morphology by Wright-Giemsa staining. Total RNA was isolated with RNeasy Mini Kit (Qiagen, Valencia, Calif.). Preparation of labeled cRNA and hybridization to U95Av2 microarrays containing approximately 10,000 genes (Affymetrix, Santa Clara, Calif.) was performed as previously described (Zhan et al., 2002; Zhan et al., 2003). RNA amplification was not required.
# To see if multiple myeloma plasma cells also upregulate the genes in response to drugs used to treat this disease, gene expression profiling of multiple myeloma plasma cells was performed before and after 48 hour in vivo treatment with thalidomide (FIG. 33), ImiD (FIG. 34), PS-341 (FIG. 32), or dexamethasone (FIG. 35). […] In support of this notion, […] and FRZB were expressed at low to undetectable levels in 30 HMCL and several cases of extramedullary disease (FIG. 15).
# C2C12 cells [2] = experiment: Osteoblast differentiation assay (alkaline phosphatase), 5 days; type: cell-based, mouse; settings: 50 ng/ml BMP-2 + 50 ng/ml recombinant human DKK1, 5 days
# Description: C2C12 mesenchymal precursor cells (American Type Tissue Culture, Reston, Va.) were cultured in DMEM (Invitrogen, Carlsbad, Calif.) supplemented with 10 percent heat-inactivated fetal calf serum. Alkaline phosphatase activity in C2C12 cells was measured as described (Gallea, et al., 2001; Spinella-Jaegle, et al., 2001). Cell lysates were analyzed for protein content using the micro-BCA assay kit (Pierce, Rockford, Ill.).
# C2C12 cells [3] = experiment: Alkaline phosphatase (ALP) assay, BMP-2-induced differentiation; type: cell-based, mouse; settings: 72 hrs
# Description: ALP activity was measured using ALP kit (Diagnostic Chemical Limited, Exton, Pa.) according to manufacturer instructions. Absorbance The of samples was determined with a Spectra Max340 Microplate Spectrophotometer (Molecular Devices, Sunnyvale, Calif.) at 402 nm. Cell lysates were analyzed for protein content with using the micro-BCA assay kit (Pierce, Rockford, Ill.).
# Chemical synthesis of siRNA specific to LRP5/6, GFP, and control siRNA were purchased from Qiagen (Valencia, Calif.). The siRNA were transiently transfected into C2C12 using Lipofectamine according to manufacturer instructions (Invitrogen). RNA was isolated after 24, 48 or 72 hours then subjected to RT-PCR or qPCR for determination of efficacy of target gene silencing.
# C2C12 cells [4] = experiment: GST-E-cadherin binding assay / immunoblot of uncomplexed b-catenin; type: cell-based, mouse
# hFOB 1.19 cells = experiment: as above; type: cell-based, human; settings: lowest concentration tested (5 ng/ml)
# Description: (§1) Cells were incubated in MEM, Wnt3a CM, control CM, or with recombinant Wnt3a for indicated times. For inhibition studies, cells were pretreated with purified recombinant Dkk1 at indicated concentrations or Dkk1 CM, Dkk2 CM, or bone marrow plasma with low or high concentrations of Dkk1 protein for one hour. Following treatment, cells were lysed as described (Qiang et al., 2002). Cell lysates were separated by SDS-PAGE and transferred to Immobilon polyvinylidene difluoride membranes (Millipore, Bedford, Mass.). Immunoblotting was performed using the indicated antibodies.
# (§2) The GST-E-cadherin binding assay was performed as described (Bafico et al., 1998). Briefly, the beta-catenin binding site of E-cadherin as a GST-fusion protein was purified using GST beads. GST-E-cadherin was used to precipitate uncomplexed b-catenin present in 500 ng of cell lysate. Precipitated b-catenin was detected by immunoblotting using a b-catenin monoclonal antibody. Non-phosphorylated b-catenin was detected with a monoclonal antibody specific for b-catenin dephosphorylated at residues of 27-37 (Alexis, San Diego, Calif.).
# Saos-2 cells [5] = experiment: as above; type: cell-based, human
# Description: as §1, §2
# The GST-E-cadherin binding assay was performed as described (Bafico et al., 1998). […] Precipitated beta-catenin was detected by immunoblotting analysis using a b-catenin monoclonal antibody (Qiang et al., 2005).
# C2C12 cells [6] = experiment: OPG mRNA (qPCR) and protein (ELISA) in osteoblast cells; type: cell-based, mouse
# Description: (§3) C2C12 cells were cultured in 6-well plates in DMEM with 10% FBS and maintained at subconfluence. MM cells (5×10^5/ml) were seeded on the C2C12 in the presence or absence of Wnt3a-CM or Cont-CM for indicated times. For coculture with primary cells, CD138 positive cells were cultured on of the C2C12 monolayer […] in the presence or absence of rWnt3a with and without anti-DKK1 antibody (R&D System) for 48 hours. Total RNA was isolated using TRIZOL reagent (Invitrogen). Supernatants were harvested for protein analysis.
# (§4) Microtiter plates were coated with 50 μl of anti-DKK1 antibody (R&D Systems, Minneapolis, Minn.) according to manufacturer recommendations. Bone marrow serum (1:50) in dilution buffer was added and incubated overnight at 4° C. Plates were washed and incubated with biotinylated goat anti-human DKK1 IgG (R&D Systems, Minneapolis, Minn.) followed by streptavidin-horseradish peroxidase (Vector Laboratories), according to manufacturer recommendations. The concentrations of OPG and RANKL proteins in cultured supernatant were measured using the kits from according to manufacturer recommendations (R&D Systems, Minneapolis, Minn.).
# (§5) One microgram of total RNA was reverse transcribed into total cDNA. Quantitative PCR (qPCR) was performed using an ABI Prism 7000 sequence detection system (Applied Biosystems, Foster City, Calif.). The reaction mixture contained 1 ml of cDNA, dedicated buffers with specific primers and probes (5′-labeled by 6-carboxy-fluorescein and 3′-labeled by 1-carboxy-teteramethyrhdamine), and DNA polymerase in a total 20 ml volume. […] Each cDNA sample was analyzed in triplicate in parallel with GAPDH as a control. Changes in mRNA concentration were determined by subtracting the CT (threshold cycle) of target gene from the CT of GAPDH (Δ=CT gene−CT GAPDH). The mean of Δ control was subtracted from the ΔSiLRP5/6 reaction (mean Δ control−ASiLRP5/6=e) The difference was calculated as 2^e by the ^2-ΔΔCT (Livak and Schmittgen, 2001).
# C2C12 cells [7] = experiment: RANKL mRNA (qPCR) in osteoblast cells; type: cell-based, mouse; settings: 48 hours
# Description: as §3, §5
# C2C12 cells [8] = experiment: TOPflash LEF/TCF luciferase reporter gene assay; type: cell-based; settings: mouse pre-osteoblasts
# Description: Cells plated at 5×10^4 per well in a 12-well plate were transiently co-transfected with […] of either TOPflash, FOPflash (Korinek et al., 1997), or Cbfa-1-luc (kindly provided by Dr. Ying Zhang, NCI, NIH) and 50 ng of pSV-b-galactosidase vector to normalize for transfection efficiency using Lipofectamine according to manufacturer instructions (Invitrogen). Following transfection, cells were exposed to Wnt3a CM or control CM for 24 hr prior to luciferase assay. Luciferase activity was measured as previously described (Qiang et al., 2003).
# Saos-2 cells [9] = experiment: OPG mRNA (qPCR) and protein (ELISA) in osteoblast cells; type: cell-based, human
# Description: as §4
# as §5, with “Calif.).” for “Calif.). The reaction mixture contained 1 ml of cDNA, dedicated buffers with specific primers and probes (5′-labeled by 6-carboxy-fluorescein and 3′-labeled by 1-carboxy-teteramethyrhdamine), and DNA polymerase in a total 20 ml volume.”, “2001). […]” for “2001).”
# MG63 cells = experiment: OPG mRNA (qPCR) in osteoblast cells; type: cell-based, human; settings: data not shown
# Description: One microgram of total RNA was reverse transcribed into total cDNA. Quantitative PCR (qPCR) was performed using an ABI Prism 7000 sequence detection system (Applied Biosystems, Foster City, Calif.). The reaction mixture contained […], dedicated buffers with specific primers and probes (5′-labeled by 6-carboxy-fluorescein and 3′-labeled by 1-carboxy-teteramethyrhdamine), and DNA polymerase in a total […]. Following 2 min incubation at 50° C. and 10 min incubation at 95° C. for denaturing, the reaction was subjected to 40-cycle amplification at 95° C. for 15 s to denature and at 60° C. for 1 min for annealing/extension. Each cDNA sample was analyzed in triplicate in parallel with GAPDH as a control. Changes in mRNA concentration were determined by subtracting the CT (threshold cycle) of target gene from the CT of GAPDH (Δ=CT gene−CT GAPDH). The mean of Δ control was subtracted from the ΔSiLRP5/6 reaction (mean Δ control−ASiLRP5/6=e) The difference was calculated as 2^e by the ^2-ΔΔCT (Livak and Schmittgen, 2001).
# [10] = dose- and time-dependent, maximum reached
molecule,measurement,setting,value
CC(C)C[C@H](NC(=O)[C@H](Cc1ccccc1)NC(=O)c1cnccn1)B(O)O [PS-341],DKK-1 and FRZB expression after drug treatment,[1],massively upregulated in many cases
O=C1CCC(N2C(=O)c3ccccc3C2=O)C(=O)N1 (stereo not shown) [thalidomide],DKK-1 and FRZB expression after drug treatment,[1],massively upregulated in many cases
"recombinant human DKK1: recombinant Dickkopf-1 protein, soluble inhibitor of Wnt signaling (protein) TLNSVLNSNAIKNLPPPLGGAAGHPGSAVSAAPGILYPGGNKYQTIDNYQPYPCAEDEECGTDEYCASPTRGGDAGVQICLACRKRRKRCMRHAMCCPGNYCKNGICVSSDQNHFRGEIEETITESFGNDHSTLDGYSRRTTLSSKMYHTKGQEGSVCLRSSDCASGLCCARHFWSKICKPVLKEGQVCTKHRRKGSHGLEIFQRCYCGEGLSCRIQKDHHQASNSSRLHTCQRH",alkaline phosphatase production with BMP-2 plus DKK1,C2C12 cells [2],not produced
same,BMP-2-induced ALP activity after Dkk1 pretreatment,"C2C12 cells [3]; 100 ng/ml Dkk1, presence or absence of Wnt3a",significantly inhibited ALP activity
same,concentration of maximal inhibition of Wnt3a-increased non-phosphorylated b-catenin,C2C12 cells [4]; pretreatment before Wnt3a,50 ng/mL
same,b-catenin level (pull-down assay),C2C12 cells [4]; recombinant DKK1 before Wnt3a,reduced
same,inhibition of Wnt3a-increased non-phosphorylated b-catenin,hFOB 1.19 cells,pronounced inhibition
same,inhibition of Wnt3a-increased non-phosphorylated b-catenin,Saos-2 cells [5]; lowest concentration tested (5 ng/ml),pronounced inhibition
same,b-catenin level (pull-down assay),Saos-2 cells [5]; recombinant DKK1 before Wnt3a,reduced
same,Wnt3a-induced increase in OPG mRNA in presence of DKK1,C2C12 cells [6]; 100 ng/ml of DKK1 in culture media,significantly inhibited
same,"RANKL mRNA decreased by Wnt3a, after DKK1 pretreatment",C2C12 cells [7]; 100 ng/ml DKK1 pretreatment,restored
same,Wnt3a-induced TCF/LEF transcriptional activity in presence of Dkk1,C2C12 cells [8],completely attenuates
"Wnt3a: recombinant Wnt3a (R&D Systems), canonical Wnt ligand (protein, UniProt P56704 19-352, looked up) Protein Wnt-3a: SYPIWWSLAVGPQYSSLGSQPILCASIPGLVPKQLRFCRNYVEIMPSVAEGIKIGIQECQHQFRGRRWNCTTVHDSLAIFGPVLDKATRESAFVHAIASAGVAFAVTRSCAEGTAAICGCSSRHQGSPGKGWKWGGCSEDIEFGGMVSREFADARENRPDARSAMNRHNNEAGRQAIASHMHLKCKCHGLSGSCEVKTCWWSQPDFRAIGDFLKDKYDSASEMVVEKHRESRGWVETLRPRYTYFKVPTERDLVYYEASPNFCEPNPETGSFGTRDRTCNVSSHGIDGCDLLCCGRGHNARAERRREKCRCVFHWCCYVSCQECTRVYDVHTCK","ALP activity, factor alone",C2C12 cells [3]; DMEM with 2% horse serum,no effect
same,increase of OPG protein relative to controls (ELISA of supernatants),C2C12 cells [6],2000 fold
same,increase of OPG mRNA,C2C12 cells [6]; [10],40 fold
same,increase of OPG protein relative to controls (ELISA of supernatants),Saos-2 cells [9],4 fold
same,increase of OPG mRNA,Saos-2 cells [9]; [10],2 fold
same,increase of OPG mRNA,MG63 cells,1.5 fold
same,RANKL mRNA after Wnt3a,C2C12 cells [7],significant decrease in RANKL mRNA
